Assay results published in the DeepSol protein solubility set.

Assay: soluble on expression in E. coli; label from the status in PepcDB or PDB records

Row | Sequence | soluble on expression in E. coli
1 | SNSSPPPANSANGDTTNNGENGQDLNLNFLDKIRLSTKRDAKEDEGEELPTELNTINSAGGFLVVSPDKLSVKYTNTNLHGHDVGVVQANKPAPIKCLTYYFEIFVKDSGIKGQIAIGFTKESFKMRRQPGWEVNSCGYHGDDGYLYRGQGKGEPFGPKFTKDDAVGGGINYASQEFFFTKNGTIVGKIPKDIRGHLFPTVAVHSQNEEVLVNFGKKKFAFDIKGYEASERNKQQLAIEKISIPPNIGYGLVKTYLLHYGYEETLDAFNLATKNTVPPIHIDQENAIDEDDSSYALKQRKNLRQLVRNGEIDTALAELQKLYPQIVQDDKSVVCFLLHCQKFIELVRVGKLEEGVNYGRLELAKFVGLTGFQDIVEDCFALLAYEKPEESSVWYFLEDSQRELVADAVNAAILSTNPNKKDVQRSCHLQSHLEKLLRQLTVCCLERRSLNGDQGETFRLRHVLNNNR | soluble
2 | SNVFARSSVLAAEMIDVFDRTHTEKELVFQSKELCRDFIHSRITREGLSWSKVELDLPEPRGVLVDVSVVLLKLGDELECMRPYVYRNIAKQLNISVSVEAVVSDAFLSVATEVIAMGITWGKVVAIYAVAAGLAVDCVRLGHPVMVHTIVDSLGEFVRRSLVPWLKKRGGWVDILKCVVNMDSRAHVHWLSTAVLTWREFIKTMYVYLTK | soluble
3 | SPDHLFPPKPNTRVVVAKFPMGAVTVEDLLVLGKPFGTVVKHLVLPAKGFLEFSAHKEAVNMVNHFQQKPAFVKDTRVGLYLSPRVEGIHSPPKYDEPVPKRLKRTNNPSVVCFSHLPPGEDNQAEVLELAAMFGEVWQSKFLDGKALIEMVDWRDADIMVKYYYSNPLKIQGKSIKVTMSYIKSLREMPGELTPRKSDSSKHSRQKEESSVKDKADDTNQESSEKETKTIKTPEQSQEEGVQLEEGTDHYNNLKLKHAVEEQADGQPDGE | soluble
4 | SPMANSGPLCCTICHERLEDTHFVQCPSVPSHKFCFPCSRESIKAQGATGEVYCPSGEKCPLVGSNVPWAFMQGEIATIL | soluble
5 | SQPKVPEWVNTPSTCCLKYYEKVLPRRLVVGYRKALNCHLPAIIFVTKRNREVCTNPNDDWVQEYIKDPNLPLLPTRNLSTVKIITAKNGQPQLLNSQ | soluble
6 | SQTREDSVYLAKLAEQAERYEEMVENMKAVASSGQELSVEERNLLSVAYKNVIGARRASWRIVSSIEQKEESKEKSEHQVELIRSYRSKIETELTKISDDILSVLDSHLIPSATTGESKVFYYKMKGDYHRYLAEFSSGDAREKATNSSLEAYKTASEIATTELPPTHPIRLGLALNFSVFYYEIQNSPDKACHLAKQAFDDAIAELDTLSEESYKDSTLIMQLLRDNLTLWTSDISESGQEDQQQQQQQQQQQQQQQQQAPAEQTQGEPTK | soluble
7 | SRENLGRIQFSVGYNFQESTLTVKIMKAQELPAKDFSGTSDPFVKIYLLPDKKHKLETKVKRKNLNPHWNETFLFEGFPYEKVVQRILYLQVLDYDRFSRNDPIGEVSIPLNKVDLTQMQTFWKDLKP | soluble
8 | SSEASRDDYKIQSFDAQTQQLLKTALKDPGAVDLERVANVIVDHSLQDCVFSKEAGRMCYAIIQAESKQAGQSVFRRGLLNRLQKEYDAREQLRACSLQGWVCYVTFICNIFDYLRVNNMPMMALVNPVYDCLFQLAQPESLSREEEVDCLVLQLHRVGEQLEKMNGQRMDELFILIRDGFLLPTDLSSLARLLLLEMIEFRAAGWKTTPAAHKYYYSEVSD | soluble
9 | SSGGGTETPVACDAAQGGKKRDSLGTPGAAHLIIKDLGEIHSRLLDHRPVTQGEIRYFVKEFEEKRGLRELRVLKNLENTIQETNECLLPKCRETMECGLGETLQRLQAANDSICRLQQREQERKKVINDYLTASEKRRLVQWEEFVSGQPQRRAEVDEEHRRAVERLREQYAAMEKDLAKFSTF | soluble
10 | SSGRSVRAETRSRAKDDIKKVMAAIEKVRKWEKKWVTVGDTSLRIFKWVPVTDSKEKEKSKSNSSAAREPNGFPSDASANSSLLLEFQDENSNQSSVSDVYQLKVDSSTNSSPSPQQSESLSPAHTSDFRTDDSQPPTLGQEILEEPSLPSSEVADEPPTLTKEEPVPLETQVVEEEEDSGAPPLKRFCVDQPTVPQTASES | soluble
11 | SSLVRRIISTAKAPAAIGPYSQAVLVDRTIYISGQLGMDPASGQLVPGGVVEEAKQALTNIGEILKAAGCDFTNVVKATVLLADINDFSAVNDVYKQYFQSSFPARAAYQVAALPKGGRVEIEAIAVQGPLTTASL | soluble
12 | SSMTSRYKRSIESATNVATELSKGNYDARTYGGYIRRSDKLGHAMNSLAIDLMEMTRTQEMQRDRLLTVIENIGSGLIMIDGRGFINLVNRSYAKQFHINPNHMLRRLYHDAFEHEEVIQLVEDIFMTETKKCKLLRLPIKIERRYFEVDGVPIMGPDDEWKGIVLVFHDMTETKKLEQMRKDFVANVSHELKTPITSIKGFTETLLDGAMEDKEALSEFLSIILKESERLQSLVQDLLDLSKIEQQNFTLSIETFEPAKMLGEIETLLKHKADEKGISLHLNVPKDPQYVSGDPYRLKQVFLNLVNNALTYTPEGGSVAINVKPREKDIQIEVADSGIGIQKEEIPRIFERFYRVDKDRSRNSGGTGLGLAIVKHLIEAHEGKIDVTSELGRGTVFTVTLKRAAEKSA | not soluble
13 | SSSKFQQVEQDVKAIEVSLSARIGVSVLDTQNGEYWDYNGNQRFPLTSTFKTIACAKLLYDAEQGKVNPNSTVEIKKADLVTYSPVIEKQVGQAITLDDACFATMTTSDNTAANIILSAVGGPKGVTDFLRQIGDKETRLDRIEPDLNEGKLGDLRDTTTPKAIASTLNKFLFGSALSEMNQKKLESWMVNNQVTGNLLRSVLPAGWNIADRSGAGGFGARSITAVVWSEHQAPIIVSIYLAQTQASMEERNDAIVKIGHSIFDVYTSQSR | soluble
14 | SSSLHKSRIADFQDVLKEPSIALEKLRELSFSGIPCEGGLRCLCWKILLNYLPLERASWTSILAKQRELYAQFLREMIIQPGIAKANMGVSREDVTFEDHPLNPNPDSRWNTYFKDNEVLLQIDKDVRRLCPDISFFQRATDYPCLLILDPQNEFETLRKRVEQTTLKSQTVARNRSGVTNMSSPHKNSAPSSLNEYEVLPNGCEAHWEVVERILFIYAKLNPGIAYVQGMNEIVGPLYYTFATDPNSEWKEHAEADTFFCFTNLMAEIRDNFIKSLDDSQCGITYKMEKVYSTLKDKDVELYLKLQEQNIKPQFFAFRWLTLLLSQEFLLPDVIRIWDSLFADDNRFDFLLLVCCAMLMLIREQLLEGDFTVNMRLLQDYPITDVCQILQKAKELQDSK | soluble
15 | SSTHGSRFPLCGGRRDHKGLTHIFNPPPKRFESILEGLFGPALLKDLSLFKDCEPESISDWTFDENCLFCCLRRDKVKGHLVGLDEPASGAGQEALLKQEQAKIIRFERQAEEFLNAVFYRKDSPWVSDPNIPLVAREIMQRMIQQFAAEYTSKNSSTQDPSQPNSTKNQSLPKASPVTTSPTAATTQNPVLSKLLMADQDSPLDLTVRKSQSEPSEQDGVLDLSTKKSPCAGSTSLSHSPGCSSTQGNGRPGRPSQYRPDGLRSGDGVPPRSLQDGTREGFGHSTSLKVPLARSLQISEELLSRNQLSTAASLGPSGLQNHGQHLILSREASWAKPHYEFNLSRMKFRGNGALSNISDLPFLAENSAFPKMALQAKQDGKKDVSHSSPVDLKIPQVRGMDLSWESRTGDQYSYSSLVMGSQTESALSKKLRAILPKQSRKSMLDAGPDSWGSDAEQSTSGQPYPTSDQEGDPGSKQPRKKRGRYRQYNSEILEEAISVVMSGKMSVSKAQSIYGIPHSTLEYKVKERLGTLKNPPKKKMKLMRSEGPDVSVKIELDPQGEAAQSANESKNE | soluble
16 | SSVPPGSIIVSDWHRCPDSREFFSKILHKKRRRKFGLLEAPMMPPQMNVDLVRYKVFLSGKTGVGKSALAARLAGLDLPKMHYETTGIETTVVFWPVRLKESGRVLFFRFELWDCGESAMRRFDHMLLSCKEKVDAILFLFSFTDRGSFDDLTNQISRITEPSDRVVKLVVGTKFDLFMHTDVTESDVTHFQEVWGLPVFRVGGDVSAGLGEVAPLLNALAENLWHQDCMAASSVSISPQAALRETSSEIIV | not soluble
17 | SSWFRAAPENASPGDQDVFDEEADESLLAQREWQGHMRKRVQEGYRDGLDAGKALTLQRGFNQGYKEGADVIINYGLLRGTLSALLSWCHLHGNSSTLISKISNLLDTVDQCEECVLRRLKSVTSQPRVTDLLDAIEDMDLCHVVPSDQAKGDSNAEINTDSDSPNGMGCSHPEHCRPKEHAHLEKPSLSWILEQTSSLVKQLGVPADILQHLRQL | soluble
18 | SSWIPFKIGQPKKQIVSKTVERDFEREYGKLQQLEEQTKRLQKDMKKSTDADLAMSKSAVKISLDLLSNPLCEQDQDFLRMVTALDTAMKRMDAFNQEKVNQIQKTVIEPLKKFGSIFPSLNMAVKRREQALQDYGRLQAKVEKYEEKEKTGPVLAKLHQAREELRPVREDFEAKNKQLLDEMPRFYNSRLDYFQPSFESLIRAQVIYYSEMHKIFGDLTQQLDQPGHSDEHRERENETKLSELRALSIVADD | soluble
19 | STGKKPKHHVLSHDIIPASKPIAEKLQIQPESPVVELKRILYNDDQPLTFEVTHYPLDLFPGIDTFIADGVSMHDILKQQYKVVPTHNTKLLNVVYAQQEESKYLDCDIGDALFEIDKTAFTSNDQPIYCSLFLMHTNRVTFTINSPYT | soluble
20 | STGMRPRGAAFAAGPPGDLHLGTAIGFAGAIWRSRSPAMSTLLDIKSSVLRQVQVCPSFRRRTEQDPGSASADPQEPATGAWKPGDGVEFFAHMRLMLKKGEGRQGLPCLEVPLRSGSPAPPEPVDPSLGLRALAPEEVEMLYEEALYTVLYRAGTMGPDQVDDEEALLSYLQQVFGTSLEEHTEAIERVRKAKAPTYALKVSVMRAKNLLAKDPNGFSDPYCMLGILPASDATREPRAQKEQRFGFRKGSKRGGPLPAKCIQVTEVKSSTLNPVWKEHFLFEIEDVSTDQLHLDIWDHDDDVSLVEACRKLNEVIGLKGMGRYFKQIVKSARANGTAGPTEDHTDDFLGCLNIPVREVPVAGVDRWFKLEPRSSASRVQGHCHLVLKLITTQRDTAMSQRGRSGFLSHLLLLSHLLRLEHSAEEPNSSSWRGELSTPAATILCLHGAQSNLSPLQLAVLHWQVSSRHHQTCTLDYSYLLGLLEDMQAHWEEAPSLPQEQEESLADSLSAFSEFGLQLLRQLRDYFPATNSTAVHRLELLLKCLGKLQLFQPSFEICPFESELNMDIAAALKRGNREWYDRILNDKSPREQPGPQRLPGLVVLADAVYDDLQFCYSVYASLFHSILNVDVFTLTFRQLERLVAEEAWVLTEELSPKMTLEVASGLFELYLTLADLQRFWDSIPGRDSRSLALAGIHAPFLPAVKLWFQVLRDQAKWRLQGAVDMDTLEPVDASSRHSSSAATAGLCLSHIQELWVRLAWPDPAQAQGLGTQLGQDVCEATLFYTELLRKKVDTQPGAAGEAVSEALCVVLNNVELVRKAAGQALKGLAWPEGATGPEGVLPRPLLSCTQALDDDLQREAHTVTAHLTSKMVGDIRKYVQHISLSPDSIQNDEAVAPLMKYLDEKLALLNASLVKGNLSRVLEALWELLLQAILQALGANRDVSADFYSRFHFTLEALVSFFHAEGQGLPLESLRDGSYKRLKEELRLHKCSTRECIEQFYLDKLKQRTLEQNRFGRLSVRCHYEAAEQRLAVEVLHAADLLPLDANGLSDPFVIVELGPPHLFPLVRSQRTQVKTRTLHPVYDELFYFSVPAEACRRRAACVLFTVMDHDWLSTNDFAGEAALGLGGVTGVARPQVGGGARAGQPVTLHLCRPRAQVRSALRRLEGRTSKEAQEFVKKLKELEKCMEADP | soluble
21 | STLKGALSVKFDVKCPADKFFSAFVEDTNRPFEKNGKTEIEAVDLVKKTMTIQMSGSEIQKYFKTLKGSIAVTPIGVGDGSHVVWTFHFEKVHKDIDDPHSIIDESVKYFKKLDEAILNFKE | soluble
